# Laboratory results published in patent publication US20250325630A1, “HOMODIMER FUSION PROTEINS FOR TREATING ATOPIC DERMATITIS” (Intervet Inc., priority 2021, published 2025).
# T1: canine IL-4 (cIL-4) (Canis lupus familiaris, UniProt O77762)
# T1 sequence (O77762 25-132): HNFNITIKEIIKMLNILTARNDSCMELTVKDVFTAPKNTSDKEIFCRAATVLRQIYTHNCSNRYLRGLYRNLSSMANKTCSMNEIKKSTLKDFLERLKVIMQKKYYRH
# T2: canine IL-13 (cIL-13) (Canis lupus familiaris, UniProt Q9N0W9)
# T2 sequence (Q9N0W9 19-131): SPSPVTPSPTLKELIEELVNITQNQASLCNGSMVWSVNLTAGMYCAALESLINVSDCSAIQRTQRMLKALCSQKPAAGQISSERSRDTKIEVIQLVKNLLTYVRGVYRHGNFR
# B1: cIL-4Rα-cFc-H: cIL-4Rα-cIgGB-Fc with N202H half-life substitution, SEQ ID NO: 11 (protein)
# chain: VKVLHEPSCFSDYISTSVCQWKMDHPTNCSAELRLSYQLDFMGSENHTCVPENREDSVCVCSMPIDDAVEADVYQLDLWAGQQLLWSGSFQPSKHVKPRTPGNLTVHPNISHTWLLMWTNPYPTENHLHSELTYMVNVSNDNDPEDFKVYNVTYMGPTLRLAASTLKSGASYSARVRAWAQTYNSTWSDWSPSTTWLNYYEPWEQHLPPKRENGRVPRPPDCPKCPAPEMLGGPSVFIFPPKPKDTLLIARTPEVTCVVVDLDPEDPEVQISWFVDGKQMQTAKTQPREEQFNGTYRVVSVLPIGHQDWLKGKQFTCKVNNKALPSPIERTISKARGQAHQPSVYVLPPSREELSKNTVSLTCLIKDFFPPDIDVEWQSNGQQEPESKYRTTPPQLDEDGSYFLYSKLSVDKSRWQRGDTFICAVMHEALHHHYTQESLSHSPGK
# modifications: homodimer
# B2: cIL-4Rα-cFc-YTE: cIL-4Rα-cIgGB-Fc with L18Y/A20T/T22E half-life substitutions, SEQ ID NO: 8 (protein)
# chain: VKVLHEPSCFSDYISTSVCQWKMDHPTNCSAELRLSYQLDFMGSENHTCVPENREDSVCVCSMPIDDAVEADVYQLDLWAGQQLLWSGSFQPSKHVKPRTPGNLTVHPNISHTWLLMWTNPYPTENHLHSELTYMVNVSNDNDPEDFKVYNVTYMGPTLRLAASTLKSGASYSARVRAWAQTYNSTWSDWSPSTTWLNYYEPWEQHLPPKRENGRVPRPPDCPKCPAPEMLGGPSVFIFPPKPKDTLYITREPEVTCVVVDLDPEDPEVQISWFVDGKQMQTAKTQPREEQFNGTYRVVSVLPIGHQDWLKGKQFTCKVNNKALPSPIERTISKARGQAHQPSVYVLPPSREELSKNTVSLTCLIKDFFPPDIDVEWQSNGQQEPESKYRTTPPQLDEDGSYFLYSKLSVDKSRWQRGDTFICAVMHEALHNHYTQESLSHSPGK
# modifications: homodimer
# B3: cIL-4Rα-cFc: homodimer of canine IL-4Rα ECD, IgGB hinge region and IgGB cFc fusion protein, SEQ ID NO: 5 (protein)
# chain: VKVLHEPSCFSDYISTSVCQWKMDHPTNCSAELRLSYQLDFMGSENHTCVPENREDSVCVCSMPIDDAVEADVYQLDLWAGQQLLWSGSFQPSKHVKPRTPGNLTVHPNISHTWLLMWTNPYPTENHLHSELTYMVNVSNDNDPEDFKVYNVTYMGPTLRLAASTLKSGASYSARVRAWAQTYNSTWSDWSPSTTWLNYYEPWEQHLPPKRENGRVPRPPDCPKCPAPEMLGGPSVFIFPPKPKDTLLIARTPEVTCVVVDLDPEDPEVQISWFVDGKQMQTAKTQPREEQFNGTYRVVSVLPIGHQDWLKGKQFTCKVNNKALPSPIERTISKARGQAHQPSVYVLPPSREELSKNTVSLTCLIKDFFPPDIDVEWQSNGQQEPESKYRTTPPQLDEDGSYFLYSKLSVDKSRWQRGDTFICAVMHEALHNHYTQESLSHSPGK
# modifications: homodimer
# B4: cIL-13Rα1-cFc-YTE: cIL-13Rα1-cIgGB-Fc with L18Y/A20T/T22E half-life substitutions, SEQ ID NO: 9 (protein)
# chain: GGVAAPTETQPPVTNLSVSVENLCTVIWTWDPPEGASPNCTLRYFSHFDNKQDKKIAPETHRSKEVPLNERICLQVGSQCSTNESDNPSILVEKCTPPPEGDPESAVTELQCVWHNLSYMKCTWLPGRNTSPDTNYTLYYWHSSLGKILQCEDIYREGQHIGCSFALTNLKDSSFEQHSVQIVVKDNAGKIRPSFNIVPLTSHVKPDPPHIKRLFFQNGNLYVQWKNPQNFYSRCLSYQVEVNNSQTETNDIFYVEEAKCQNSEFEGNLEGTICFMVPGVLPDTLNTVRIRVRTNKLCYEDDKLWSNWSQAMSIGENTDPTPKRENGRVPRPPDCPKCPAPEMLGGPSVFIFPPKPKDTLYITREPEVTCVVVDLDPEDPEVQISWFVDGKQMQTAKTQPREEQFNGTYRVVSVLPIGHQDWLKGKQFTCKVNNKALPSPIERTISKARGQAHQPSVYVLPPSREELSKNTVSLTCLIKDFFPPDIDVEWQSNGQQEPESKYRTTPPQLDEDGSYFLYSKLSVDKSRWQRGDTFICAVMHEALHNHYTQESLSHSPGK
# modifications: homodimer
# B5: cIL-13Rα2-cFc-YD: cIL-13Rα2-cIgGB-Fc with L18Y/T22D half-life substitutions, SEQ ID NO: 13 (protein)
# chain: SMLSNAEIKVNPPQDFEIVDPGYLGYLSLQWQPPLFPDNFKECTIEYELKYRNIDSENWKTIITKNLHYKDGFDLNKGIEAKINTLLPAQCTNGSEVRSSWAETTYWTSPQGNRETKIQDMDCVYYNWQYLVCSWKPGMGVHFDTNYQLFYWYEGLDHSAECTDYIKVNGKNMGCRFPYLESSDYKDFYICVNGSSESQPIRPSYFIFQLQNIVKPMPPDYLSLTVKNSEEINLKWNMPKGPIPAKCFIYEIEFTEDGTTWVTTTVENEIQITRTSNESQKLCFLVRSKVNIYCSDDGIWSEWSDEQCWKGDIWKETPKRENGRVPRPPDCPKCPAPEMLGGPSVFIFPPKPKDTLYIARDPEVTCVVVDLDPEDPEVQISWFVDGKQMQTAKTQPREEQFNGTYRVVSVLPIGHQDWLKGKQFTCKVNNKALPSPIERTISKARGQAHQPSVYVLPPSREELSKNTVSLTCLIKDFFPPDIDVEWQSNGQQEPESKYRTTPPQLDEDGSYFLYSKLSVDKSRWQRGDTFICAVMHEALHNHYTQESLSHSPGK
# modifications: homodimer
# B6: cIL-13Rα2-cFc: homodimer of canine IL-13Rα2 ECD, IgGB hinge region and IgGB cFc fusion protein, SEQ ID NO: 7 (protein)
# chain: SMLSNAEIKVNPPQDFEIVDPGYLGYLSLQWQPPLFPDNFKECTIEYELKYRNIDSENWKTIITKNLHYKDGFDLNKGIEAKINTLLPAQCTNGSEVRSSWAETTYWTSPQGNRETKIQDMDCVYYNWQYLVCSWKPGMGVHFDTNYQLFYWYEGLDHSAECTDYIKVNGKNMGCRFPYLESSDYKDFYICVNGSSESQPIRPSYFIFQLQNIVKPMPPDYLSLTVKNSEEINLKWNMPKGPIPAKCFIYEIEFTEDGTTWVTTTVENEIQITRTSNESQKLCFLVRSKVNIYCSDDGIWSEWSDEQCWKGDIWKETPKRENGRVPRPPDCPKCPAPEMLGGPSVFIFPPKPKDTLLIARTPEVTCVVVDLDPEDPEVQISWFVDGKQMQTAKTQPREEQFNGTYRVVSVLPIGHQDWLKGKQFTCKVNNKALPSPIERTISKARGQAHQPSVYVLPPSREELSKNTVSLTCLIKDFFPPDIDVEWQSNGQQEPESKYRTTPPQLDEDGSYFLYSKLSVDKSRWQRGDTFICAVMHEALHNHYTQESLSHSPGK
# modifications: homodimer
# B7: cIL-13Rα2-cFc-YTE: cIL-13Rα2-cIgGB-Fc with L18Y/A20T/T22E half-life substitutions, SEQ ID NO: 10 (protein)
# chain: SMLSNAEIKVNPPQDFEIVDPGYLGYLSLQWQPPLFPDNFKECTIEYELKYRNIDSENWKTIITKNLHYKDGFDLNKGIEAKINTLLPAQCTNGSEVRSSWAETTYWTSPQGNRETKIQDMDCVYYNWQYLVCSWKPGMGVHFDTNYQLFYWYEGLDHSAECTDYIKVNGKNMGCRFPYLESSDYKDFYICVNGSSESQPIRPSYFIFQLQNIVKPMPPDYLSLTVKNSEEINLKWNMPKGPIPAKCFIYEIEFTEDGTTWVTTTVENEIQITRTSNESQKLCFLVRSKVNIYCSDDGIWSEWSDEQCWKGDIWKETPKRENGRVPRPPDCPKCPAPEMLGGPSVFIFPPKPKDTLYITREPEVTCVVVDLDPEDPEVQISWFVDGKQMQTAKTQPREEQFNGTYRVVSVLPIGHQDWLKGKQFTCKVNNKALPSPIERTISKARGQAHQPSVYVLPPSREELSKNTVSLTCLIKDFFPPDIDVEWQSNGQQEPESKYRTTPPQLDEDGSYFLYSKLSVDKSRWQRGDTFICAVMHEALHNHYTQESLSHSPGK
# modifications: homodimer
# Tests used:
# [1] = molecular target: T1, canine IL-4 (cIL-4); test: Binding kinetics of cFc fusion proteins to canine IL-4 (OCTET HTX); details: for ka / kdis: Table 3, cIL-4, ND = Binding Not Detected; for ka: association rate constant; for kdis: dissociation rate constant; for Kd: approximate values, read-out: binding constant (KD) with cIL-4
# Procedure: (§1) The binding constants for the cFc fusion proteins provided in Tables 3 and 4 below, were determined using OCTET® HTX. All kinetics measurements were performed by OCTET® HTX using SA® biosensors and DATA ACQUISITION® 12.0 software. 10 μg/mL of biotin-labeled antigen, either canine IL-4 (cIL-4) or canine IL-13 (cIL-13) were loaded onto the SAR biosensors for 120 seconds. Next, the biosensors were placed into 1×pH 7.0 TBS/Casein buffer for 60 seconds for the blocking phase. For the association phase, antigen loaded biosensors were placed into 2-fold serial dilutions from 1 μM down to 15.6 nM of the wild-type, the bispecific, or the FcRn-mutant receptor Fc-fusions that recognized the cIL-4 or cIL-13 antigen in 1×pH 7.0 TBS/Casein buffer for 30 seconds. The last well was buffer alone and that sensor was used for reference sensor subtraction. Finally, the biosensors were placed into 1×pH 7.0 TBS/Casein buffer for 120 seconds for the dissociation phase. The results were then analyzed using Data Analysis 12.0 software and the curves were fitted using a 1:1 binding model.
# [2] = molecular target: T2, canine IL-13 (cIL-13); test: Binding kinetics of cFc fusion proteins to canine IL-13 (OCTET HTX); details: for ka / kdis: Table 4, cIL-13; for ka: association rate constant; for kdis: dissociation rate constant
# Procedure: as §1
Molecule,loss in affinity for cIL-4 (KD times higher) relative to unmodified cIL-4Rα-cFc homodimer [1],ka [1],kdis [1],Kd [1],decrease in the affinity for cIL-13 relative to unmodified cIL-13Rα1-cFc [2],ka [2],kdis [2],"Kd ([2]; approximate values, read-out: binding constant (KD) with cIL-13)"
B1,about 10 fold,785000 M⁻¹ s⁻¹,9.88e-05 s⁻¹,100 pM,,,,
B2,~100 fold,830000 M⁻¹ s⁻¹,9.23e-06 s⁻¹,10 pM,,,,
B3,,703000 M⁻¹ s⁻¹,8.3e-07 s⁻¹,,,,,
B4,,,,,about 4 fold,66500 M⁻¹ s⁻¹,0.0011 s⁻¹,20000 pM
B5,,,,,,1.15e+06 M⁻¹ s⁻¹,5.07e-07 s⁻¹,
B6,,,,,,1e+06 M⁻¹ s⁻¹,7.45e-07 s⁻¹,
B7,,,,,,1.17e+06 M⁻¹ s⁻¹,5.04e-07 s⁻¹,
